Molecular target: the molecule itself
Assay: SEC; in solution; the only column and buffer told are those of the purification step (Superdex200 16/60, 10 mM Tris-HCl pH 8.0, 100 mM NaCl)

B1: Human EPDR1 (ependymin-related protein 1), glycosylated (natural protein, UniProt Q9UM22-1 38-224, looked up)
chain: APRPCQAPQQWEGRQVMYQQSSGRNSRALLSYDGLNQRVRVLDERKALIPCKRLFEYILLYKDGVMFQIDQATKQCSKMTLTQPWDPLDIPQNSTFEDQYSIGGPQEQITVQEWSDRKSARSYETWIGIYTVKDCYPVQETFTINYSVILSTRFFDIQLGIKDPSVFTPPSTCQMAQLEKMSEDCSW
modifications: N-glycan at Asn130; disulfide bonds C42/C172, C113/C210, C88/C222
notes: EPDR1 (MERP-1; UCC1), human, Uniprot Q9UM22, residues 38-224; The N-terminal tag of the PB-T-PAF plasmid (secretion signal, protein A tag, thrombin site) was removed with thrombin; The six C-terminal histidines have no stated cleavage site, and the protein went through a second Ni2+ step after thrombin, so they were probably kept; also called MERP-1; UCC1; not shown: protein A, N-terminal, cleaved
stoichiometry N: 2
